{"source": "paper PMC6800506", "biological_target": "tau RD containing the disease-associated P301S substitution fused to either CFP or YFP (human) (UniProt P10636)", "assay": "FRET or BRET; HEK293T tau biosensor cells with up to 200 nM freshly prepared, oligomeric or fibrillar Aβ, no tau seeds, no transfection reagent; FRET by flow cytometry after 48 h and after 2 weeks"}
{"substance": "tau RD containing the disease-associated P301S substitution fused to either CFP or YFP (from UniProt P10636-8 244-372) (domain or fragment)", "values": [{"measurement": "integrated FRET density (IFD)", "result": "< 10"}]}
